In patent US7101969 (TARGANTA THERAPEUTICS, dated 2006):

B1: GST/ORF104 fusion protein (other)
chain: MVTKEFLKTKLECSDMYAQKLIDEAQGDENRLYDLFIQKLAERHTRPAIVEY
notes: also called GST-fusion of ORF 104; not shown: GST moiety encoded by expression vector pGEX 4T-1 (Pharmacia)
B2: bacteriophage 77 ORF 104 protein (GST removed) (other)
chain: B1 chain
notes: also called phage 77 ORF 104 gene product
B3: Gal4 activation domain fused to phage 77 ORF104 (pGAD77ORF104) (other)
chain: B1 chain
B4: Gal4 activation domain (GAD) fused to full-length S. aureus DnaI (pGAD dnaI) (other)
chain: MGGGQSIMKQFKSIINTSQDFEKRIEKIKKEVINDPDVKQFLEAHRAELTNAMIDEDLNVLQEYKDQQKHYDGHKFADCPNFVKGHVPELYVDNNRIKIRYLQCPCKIKYDEERFEAELITSHHMQRDTLNAKLKDIYMNHRDRLDVAMAADDICTAITNGEQVKGLYLYGPFGTGKSFILGAIANQLKSKKVRSTIIYLPEFIRTLKGGFKDGSFEKKLHRVREANILMLDDIGAEEVTPWVRDEVIGPLLHYRMVHELPTFFSSNFDYSELEHHLAMTRDGEEKTKAARIIERVKSLSTPYFLSGENFRNN
B5: S. aureus DnaI (native protein from S. aureus cell extract) (other)
chain: B4 chain
notes: also called DnaI homolog; DnaI related protein
B6: Gal4 activation domain fused to S. aureus DnaI amino acids 64 to 313 (other)
chain: YKDQQKHYDGHKFADCPNFVKGHVPELYVDNNRIKIRYLQCPCKIKYDEERFEAELITSHHMQRDTLNAKLKDIYMNHRDRLDVAMAADDICTAITNGEQVKGLYLYGPFGTGKSFILGAIANQLKSKKVRSTIIYLPEFIRTLKGGFKDGSFEKKLHRVREANILMLDDIGAEEVTPWVRDEVIGPLLHYRMVHELPTFFSSNFDYSELEHHLAMTRDGEEKTKAARIIERVKSLSTPYFLSGENFRNN
B7: Gal4 activation domain fused to S. aureus DnaI amino acids 150 to 313 (other)
chain: AADDICTAITNGEQVKGLYLYGPFGTGKSFILGAIANQLKSKKVRSTIIYLPEFIRTLKGGFKDGSFEKKLHRVREANILMLDDIGAEEVTPWVRDEVIGPLLHYRMVHELPTFFSSNFDYSELEHHLAMTRDGEEKTKAARIIERVKSLSTPYFLSGENFRNN

Legend:
[1] = target: B5; assay: affinity chromatography: S. aureus extract (French pressure cell and sonication) on micro-columns with ligand cross-linked at 0, 0.1, 0.5, 1.0 and 2.0 mg/ml resin; eluate with 1% Triton X-100; 12.5% SDS-PAGE, silver stain
[2] = target: B5; assay: affinity chromatography of S. aureus extract, elution with 1% Triton X-100 and 1% SDS, silver stain, MALDI-ToF identification
[3] = target: Gal4 DNA binding domain fused to full-length S. aureus DnaI (pGBK dnaI) (yeast; Staphylococcus aureus, UniProt P04386 1-147); assay: yeast two-hybrid: growth of co-transformants on SD plate without Trp, Leu, His and Ade (HIS3 and ADE2 reporters); all six sectors grow on the SD plate without Trp and Leu
[4] = target: Gal4 DNA binding domain fused to phage 77 ORF104 (pGBK77ORF104) (yeast; Staphylococcus aureus …, UniProt P04386 1-147); assay: yeast two-hybrid: growth of co-transformants on THAL minus SD medium; all six sectors show growth on TL minus SD medium
GST = target: T1, GST (UniProt P08515 1-218 = GST); assay: affinity chromatography: S. aureus extract (French pressure cell and sonication) on micro-columns with GST cross-linked at 0 to 2.0 mg/ml resin; eluate with 1% SDS; 12.5% SDS-PAGE, silver stain
T1 construct: also called GST ligand (control)
T1 sequence (P08515 whole entry): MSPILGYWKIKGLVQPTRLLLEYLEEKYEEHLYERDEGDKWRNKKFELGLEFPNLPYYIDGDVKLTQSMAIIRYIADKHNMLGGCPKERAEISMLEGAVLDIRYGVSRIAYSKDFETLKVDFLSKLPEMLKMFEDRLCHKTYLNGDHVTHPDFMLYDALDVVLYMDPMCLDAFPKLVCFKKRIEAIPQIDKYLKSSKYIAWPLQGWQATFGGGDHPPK

Binder: B1
- binding result [1]: binds

Binder: B2
- binding result [2]: binds

Binder: B3
- binding result [3]: binds

Binder: B4
- binding result [4]: binds

Binder: B5
- binding result (GST): no binding (tested: 2.0 mg/ml resin)

Binder: B6
- binding result [4]: binds

Binder: B7
- binding result [4]: binds
